# Laboratory results taken from US20240247250.
# Read-outs that look alike come from different tables or passages of the source.
# Key:
# [1] = target: tRNA-guanine transglycosylase (TGT) (Escherichia coli) (UniProt P0A847); conditions: urea PAGE shift
# [2] = target: tRNA-guanine transglycosylase (TGT) (Escherichia coli) (UniProt P0A847); conditions: urea PAGE shift; best of composite hairpins
# tRNA-guanine transglycosylase (TGT) (Escherichia coli), sequence (P0A847 whole entry): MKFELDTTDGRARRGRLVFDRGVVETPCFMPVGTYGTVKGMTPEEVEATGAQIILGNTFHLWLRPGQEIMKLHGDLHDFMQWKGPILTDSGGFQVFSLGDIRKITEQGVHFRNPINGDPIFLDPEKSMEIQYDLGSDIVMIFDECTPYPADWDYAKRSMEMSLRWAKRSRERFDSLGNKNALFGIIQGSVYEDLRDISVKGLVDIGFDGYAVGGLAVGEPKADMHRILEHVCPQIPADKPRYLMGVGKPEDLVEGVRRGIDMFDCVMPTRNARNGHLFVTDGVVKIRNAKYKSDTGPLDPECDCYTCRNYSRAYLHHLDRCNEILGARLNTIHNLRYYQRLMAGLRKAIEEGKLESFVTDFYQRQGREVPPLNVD
Substance,activity [1] [% labeled],other results
Asp 17 nt DNA hairpin,40,–
His 17 nt DNA hairpin,40,–
His stem-Asp loop hairpin,–,activity [2]: > 50 % labeled
Tyr 17 nt DNA hairpin,–,activity ([1]; printed as ~-5%): 5 % labeled
